# In patent US20240238380A1 (YUHAN, published 2024):
# Target: GFRAL/RET overexpressed on HEK293 cells (GFRAL/RET/SRE-luc-overexpressing HEK293 cell line) (UniProt Q6UXV0 19-394; P07949 29-1114, limits assumed)
# Experiment: cell-based or functional assay
# GFRAL/RET overexpressed on HEK293 cells (GFRAL/RET/SRE-luc-overexpressing HEK293 cell line), sequence (Q6UXV0 19-394 limits assumed, chain 1 of 2): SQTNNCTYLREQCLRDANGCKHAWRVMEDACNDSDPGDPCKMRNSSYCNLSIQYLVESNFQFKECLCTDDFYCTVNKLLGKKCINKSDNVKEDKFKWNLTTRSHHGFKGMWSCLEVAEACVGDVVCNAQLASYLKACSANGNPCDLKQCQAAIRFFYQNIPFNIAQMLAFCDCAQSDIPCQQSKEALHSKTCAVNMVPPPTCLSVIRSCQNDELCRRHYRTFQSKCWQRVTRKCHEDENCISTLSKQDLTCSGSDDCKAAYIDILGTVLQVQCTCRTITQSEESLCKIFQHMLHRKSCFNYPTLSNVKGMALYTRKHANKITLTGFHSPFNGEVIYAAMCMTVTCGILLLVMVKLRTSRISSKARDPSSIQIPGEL
# GFRAL/RET overexpressed on HEK293 cells (GFRAL/RET/SRE-luc-overexpressing HEK293 cell line), sequence (P07949 29-1114 limits assumed, chain 2 of 2): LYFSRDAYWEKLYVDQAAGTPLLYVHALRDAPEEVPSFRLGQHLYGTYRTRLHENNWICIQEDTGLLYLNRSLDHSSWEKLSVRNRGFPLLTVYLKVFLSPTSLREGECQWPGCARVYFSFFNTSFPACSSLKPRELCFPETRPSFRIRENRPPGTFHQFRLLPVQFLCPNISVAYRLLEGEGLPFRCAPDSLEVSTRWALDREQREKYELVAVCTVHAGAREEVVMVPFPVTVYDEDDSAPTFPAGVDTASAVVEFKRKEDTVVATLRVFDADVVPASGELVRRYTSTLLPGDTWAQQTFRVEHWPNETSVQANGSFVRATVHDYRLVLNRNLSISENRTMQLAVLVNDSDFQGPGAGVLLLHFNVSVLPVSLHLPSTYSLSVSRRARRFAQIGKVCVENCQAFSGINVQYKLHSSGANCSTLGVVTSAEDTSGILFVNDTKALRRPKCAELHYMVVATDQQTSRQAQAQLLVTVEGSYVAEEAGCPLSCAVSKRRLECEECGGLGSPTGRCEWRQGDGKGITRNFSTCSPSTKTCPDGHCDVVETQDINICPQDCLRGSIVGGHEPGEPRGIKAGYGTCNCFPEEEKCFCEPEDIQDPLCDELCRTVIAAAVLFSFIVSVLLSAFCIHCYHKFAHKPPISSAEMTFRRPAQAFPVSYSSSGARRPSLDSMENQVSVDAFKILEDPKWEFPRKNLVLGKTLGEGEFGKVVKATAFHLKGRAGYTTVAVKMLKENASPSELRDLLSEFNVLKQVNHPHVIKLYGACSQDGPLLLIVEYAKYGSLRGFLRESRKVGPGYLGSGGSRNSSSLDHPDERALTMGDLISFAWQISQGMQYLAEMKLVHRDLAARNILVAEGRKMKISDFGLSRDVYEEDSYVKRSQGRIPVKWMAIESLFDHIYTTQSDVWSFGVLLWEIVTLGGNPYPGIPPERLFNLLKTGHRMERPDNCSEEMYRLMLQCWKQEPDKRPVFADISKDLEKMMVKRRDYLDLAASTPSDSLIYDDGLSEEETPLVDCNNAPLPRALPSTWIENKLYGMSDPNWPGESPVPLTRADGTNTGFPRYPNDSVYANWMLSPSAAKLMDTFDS
Binder,"EC50 (nM), SRE-luciferase reporter (RLU)","Emax (%), SRE-luciferase reporter (RLU), relative to FM9-6+Fc_hole"
FM9-1 + Fc_hole long-acting GDF15 fusion protein (dimer) (Fc fusion) chain 1: APEAAGGPSVFLFPPKPKDTLMISRTPEVTCVVVDVSHEDPEVKFNWYVDGVEVHNAKTKPREEQYASTYRVVSVLTVLHQDWLNGKEYKCKVSNKALPAPIEKTISKAKGQPREPQVYTLPPSREEMTKNQVSLWCLVKGFYPSDIAVEWESNGQPENNYKTTPPVLDSDGSFFLYSKLTVDKSRWQQGNVFSCSVMHEALHNHYTQKSLSLSPGKGSGGGGSGGGGSGGGGSNGDHCPLGPGRCCRLHTVRASLEDLGWADWVLSPREVQVTMCIGACPSQFRAANMHAQIKTRLHRLKPDTVPAPCCVPASYNPMVLIQKTDTGVSLQTYDDLLAKDCHCI chain 2: APEAAGGPSVFLFPPKPKDTLMISRTPEVTCVVVDVSHEDPEVKFNWYVDGVEVHNAKTKPREEQYASTYRVVSVLTVLHQDWLNGKEYKCKVSNKALPAPIEKTISKAKGQPREPQVYTLPPSREEMTKNQVSLSCAVKGFYPSDIAVEWESNGQPENNYKTTPPVLDSDGSFFLVSKLTVDKSRWQQGNVFSCSVMHEALHNHYTQKSLSLSPGK,9 nM,97.6%
FM9-5 + Fc_hole long-acting GDF15 fusion protein (dimer) (Fc fusion) chain 1: APEAAGGPSVFLFPPKPKDTLMISRTPEVTCVVVDVSHEDPEVKFNWYVDGVEVHNAKTKPREEQYASTYRVVSVLTVLHQDWLNGKEYKCKVSNKALPAPIEKTISKAKGQPREPQVYTLPPSREEMTKNQVSLWCLVKGFYPSDIAVEWESNGQPENNYKTTPPVLDSDGSFFLYSKLTVDKSRWQQGNVFSCSVMHEALHNHYTQKSLSLSPGKGSGGSSPTPTPTPTPTPTPTPTPTPTNGDHCPLGPGRCCRLHTVRASLEDLGWADWVLSPREVQVTMCIGACPSQFRAANMHAQIKTRLHRLKPDTVPAPCCVPASYNPMVLIQKTDTGVSLQTYDDLLAKDCHCI chain 2: APEAAGGPSVFLFPPKPKDTLMISRTPEVTCVVVDVSHEDPEVKFNWYVDGVEVHNAKTKPREEQYASTYRVVSVLTVLHQDWLNGKEYKCKVSNKALPAPIEKTISKAKGQPREPQVYTLPPSREEMTKNQVSLSCAVKGFYPSDIAVEWESNGQPENNYKTTPPVLDSDGSFFLVSKLTVDKSRWQQGNVFSCSVMHEALHNHYTQKSLSLSPGK,5.3 nM,100%
FM9-6 + Fc_hole long-acting GDF15 fusion protein (dimer) (Fc fusion) chain 1: APEAAGGPSVFLFPPKPKDTLMISRTPEVTCVVVDVSHEDPEVKFNWYVDGVEVHNAKTKPREEQYASTYRVVSVLTVLHQDWLNGKEYKCKVSNKALPAPIEKTISKAKGQPREPQVYTLPPSREEMTKNQVSLWCLVKGFYPSDIAVEWESNGQPENNYKTTPPVLDSDGSFFLYSKLTVDKSRWQQGNVFSCSVMHEALHNHYTQKSLSLSPGKGSEAAAKEAAAKEAAAKEAAAKEAAAKNGDHCPLGPGRCCRLHTVRASLEDLGWADWVLSPREVQVTMCIGACPSQFRAANMHAQIKTRLHRLKPDTVPAPCCVPASYNPMVLIQKTDTGVSLQTYDDLLAKDCHCI chain 2: APEAAGGPSVFLFPPKPKDTLMISRTPEVTCVVVDVSHEDPEVKFNWYVDGVEVHNAKTKPREEQYASTYRVVSVLTVLHQDWLNGKEYKCKVSNKALPAPIEKTISKAKGQPREPQVYTLPPSREEMTKNQVSLSCAVKGFYPSDIAVEWESNGQPENNYKTTPPVLDSDGSFFLVSKLTVDKSRWQQGNVFSCSVMHEALHNHYTQKSLSLSPGK,6.3 nM,–
FM11-1 + Fc_hole long-acting GDF15 fusion protein (dimer) (Fc fusion) chain 1: APEAAGGPSVFLFPPKPKDTLMISRTPEVTCVVVDVSHEDPEVKFNWYVDGVEVHNAKTKPREEQYASTYRVVSVLTVLHQDWLNGKEYKCKVSNKALPAPIEKTISKAKGQPREPQVYTLPPSREEMTKNQVSLWCLVKGFYPSDIAVEWESNGQPENNYKTTPPVLDSDGSFFLYSKLTVDKSRWQQGNVFSCSVMHEALHNHYTQKSLSLSPGKGSGGGGSGGGGSGGGGSNSTCPLGPGRCCRLHTVRASLEDLGWADWVLSPREVQVTMCIGACPSQFRAANMHAQIKTRLHRLKPDTVPAPCCVPASYNPMVLIQKTDTGVSLQTYDDLLAKDCHCI chain 2: APEAAGGPSVFLFPPKPKDTLMISRTPEVTCVVVDVSHEDPEVKFNWYVDGVEVHNAKTKPREEQYASTYRVVSVLTVLHQDWLNGKEYKCKVSNKALPAPIEKTISKAKGQPREPQVYTLPPSREEMTKNQVSLSCAVKGFYPSDIAVEWESNGQPENNYKTTPPVLDSDGSFFLVSKLTVDKSRWQQGNVFSCSVMHEALHNHYTQKSLSLSPGK,9.7 nM,65.6%
FM11-2 + Fc_hole long-acting GDF15 fusion protein (dimer) (Fc fusion) chain 1: APEAAGGPSVFLFPPKPKDTLMISRTPEVTCVVVDVSHEDPEVKFNWYVDGVEVHNAKTKPREEQYASTYRVVSVLTVLHQDWLNGKEYKCKVSNKALPAPIEKTISKAKGQPREPQVYTLPPSREEMTKNQVSLWCLVKGFYPSDIAVEWESNGQPENNYKTTPPVLDSDGSFFLYSKLTVDKSRWQQGNVFSCSVMHEALHNHYTQKSLSLSPGKGSGGGGSGGGGSGGGGSGGGGSGGGGSNSTCPLGPGRCCRLHTVRASLEDLGWADWVLSPREVQVTMCIGACPSQFRAANMHAQIKTRLHRLKPDTVPAPCCVPASYNPMVLIQKTDTGVSLQTYDDLLAKDCHCI chain 2: APEAAGGPSVFLFPPKPKDTLMISRTPEVTCVVVDVSHEDPEVKFNWYVDGVEVHNAKTKPREEQYASTYRVVSVLTVLHQDWLNGKEYKCKVSNKALPAPIEKTISKAKGQPREPQVYTLPPSREEMTKNQVSLSCAVKGFYPSDIAVEWESNGQPENNYKTTPPVLDSDGSFFLVSKLTVDKSRWQQGNVFSCSVMHEALHNHYTQKSLSLSPGK,7.7 nM,79.4%
FM11-3 + Fc_hole long-acting GDF15 fusion protein (dimer) (Fc fusion) chain 1: APEAAGGPSVFLFPPKPKDTLMISRTPEVTCVVVDVSHEDPEVKFNWYVDGVEVHNAKTKPREEQYASTYRVVSVLTVLHQDWLNGKEYKCKVSNKALPAPIEKTISKAKGQPREPQVYTLPPSREEMTKNQVSLWCLVKGFYPSDIAVEWESNGQPENNYKTTPPVLDSDGSFFLYSKLTVDKSRWQQGNVFSCSVMHEALHNHYTQKSLSLSPGKGSGGGGSGGGGSGGGGSGGGGSGGGGSGGGGSGGGGSNSTCPLGPGRCCRLHTVRASLEDLGWADWVLSPREVQVTMCIGACPSQFRAANMHAQIKTRLHRLKPDTVPAPCCVPASYNPMVLIQKTDTGVSLQTYDDLLAKDCHCI chain 2: APEAAGGPSVFLFPPKPKDTLMISRTPEVTCVVVDVSHEDPEVKFNWYVDGVEVHNAKTKPREEQYASTYRVVSVLTVLHQDWLNGKEYKCKVSNKALPAPIEKTISKAKGQPREPQVYTLPPSREEMTKNQVSLSCAVKGFYPSDIAVEWESNGQPENNYKTTPPVLDSDGSFFLVSKLTVDKSRWQQGNVFSCSVMHEALHNHYTQKSLSLSPGK,7.8 nM,81%

# Further lines, results first:
"EC50 (nM), SRE-luciferase reporter (RLU)","Emax (%), SRE-luciferase reporter (RLU), relative to FM9-6+Fc_hole",Binder
45.4 nM,105%,FM11-4 + Fc_hole long-acting GDF15 fusion protein (dimer) (Fc fusion) chain 1: APEAAGGPSVFLFPPKPKDTLMISRTPEVTCVVVDVSHEDPEVKFNWYVDGVEVHNAKTKPREEQYASTYRVVSVLTVLHQDWLNGKEYKCKVSNKALPAPIEKTISKAKGQPREPQVYTLPPSREEMTKNQVSLWCLVKGFYPSDIAVEWESNGQPENNYKTTPPVLDSDGSFFLYSKLTVDKSRWQQGNVFSCSVMHEALHNHYTQKSLSLSPGKGSEEEAEEEAEEEAEEEAEEEAEEEANSTCPLGPGRCCRLHTVRASLEDLGWADWVLSPREVQVTMCIGACPSQFRAANMHAQIKTRLHRLKPDTVPAPCCVPASYNPMVLIQKTDTGVSLQTYDDLLAKDCHCI chain 2: APEAAGGPSVFLFPPKPKDTLMISRTPEVTCVVVDVSHEDPEVKFNWYVDGVEVHNAKTKPREEQYASTYRVVSVLTVLHQDWLNGKEYKCKVSNKALPAPIEKTISKAKGQPREPQVYTLPPSREEMTKNQVSLSCAVKGFYPSDIAVEWESNGQPENNYKTTPPVLDSDGSFFLVSKLTVDKSRWQQGNVFSCSVMHEALHNHYTQKSLSLSPGK
6.8 nM,80.3%,FM11-6 + Fc_hole long-acting GDF15 fusion protein (dimer) (Fc fusion) chain 1: APEAAGGPSVFLFPPKPKDTLMISRTPEVTCVVVDVSHEDPEVKFNWYVDGVEVHNAKTKPREEQYASTYRVVSVLTVLHQDWLNGKEYKCKVSNKALPAPIEKTISKAKGQPREPQVYTLPPSREEMTKNQVSLWCLVKGFYPSDIAVEWESNGQPENNYKTTPPVLDSDGSFFLYSKLTVDKSRWQQGNVFSCSVMHEALHNHYTQKSLSLSPGKGSEAAAKEAAAKEAAAKEAAAKEAAAKNSTCPLGPGRCCRLHTVRASLEDLGWADWVLSPREVQVTMCIGACPSQFRAANMHAQIKTRLHRLKPDTVPAPCCVPASYNPMVLIQKTDTGVSLQTYDDLLAKDCHCI chain 2: APEAAGGPSVFLFPPKPKDTLMISRTPEVTCVVVDVSHEDPEVKFNWYVDGVEVHNAKTKPREEQYASTYRVVSVLTVLHQDWLNGKEYKCKVSNKALPAPIEKTISKAKGQPREPQVYTLPPSREEMTKNQVSLSCAVKGFYPSDIAVEWESNGQPENNYKTTPPVLDSDGSFFLVSKLTVDKSRWQQGNVFSCSVMHEALHNHYTQKSLSLSPGK
5.1 nM,68.2%,FM11-5 + Fc_hole long-acting GDF15 fusion protein (dimer) (Fc fusion) chain 1: APEAAGGPSVFLFPPKPKDTLMISRTPEVTCVVVDVSHEDPEVKFNWYVDGVEVHNAKTKPREEQYASTYRVVSVLTVLHQDWLNGKEYKCKVSNKALPAPIEKTISKAKGQPREPQVYTLPPSREEMTKNQVSLWCLVKGFYPSDIAVEWESNGQPENNYKTTPPVLDSDGSFFLYSKLTVDKSRWQQGNVFSCSVMHEALHNHYTQKSLSLSPGKGSGGSSPTPTPTPTPTPTPTPTPTPTNSTCPLGPGRCCRLHTVRASLEDLGWADWVLSPREVQVTMCIGACPSQFRAANMHAQIKTRLHRLKPDTVPAPCCVPASYNPMVLIQKTDTGVSLQTYDDLLAKDCHCI chain 2: APEAAGGPSVFLFPPKPKDTLMISRTPEVTCVVVDVSHEDPEVKFNWYVDGVEVHNAKTKPREEQYASTYRVVSVLTVLHQDWLNGKEYKCKVSNKALPAPIEKTISKAKGQPREPQVYTLPPSREEMTKNQVSLSCAVKGFYPSDIAVEWESNGQPENNYKTTPPVLDSDGSFFLVSKLTVDKSRWQQGNVFSCSVMHEALHNHYTQKSLSLSPGK
